1 substance from paper PMC12866179, “Oxidized MIF is an Alzheimer’s disease drug target relaying external risk factors to tau pathology” (Cell Reports Medicine, 2025) can be followed below.

A word on the stoichiometry N: it is the number of molecules, sites or subunits per partner or assembly.

The test has as its target recombinant human MIF-C80W (human). The test is described as follows: SEC-MALS; 100 uM MIF (WT or C80W) in 20 mM phosphate buffer, with or without 100 uM PAV-174; TSKgel G2000SWXL, 0.5 mL/min, 25 C; UV 280 nm and miniDawn Treos light scattering. Background: SEC sorts molecules by how far they enter the pores of the column.

Turning to “recombinant human MIF-C80W (natural protein)”, the stoichiometry N stood at 3.
